For experiment [1], the target named is DC-SIGN Biot-ECD (biotinylated extracellular domain of DC-SIGN) (UniProt Q9NNX6). As to the kind of experiment: SPR. Background: SPR reads the build-up and loss of mass on a sensor chip optically.
Experiment [2] has as its target MGL Biot-ECD (biotinylated extracellular domain of MGL) (UniProt Q8IUN9). As to the kind of experiment: SPR.

These results are taken from article PMC9687312.

A word on the Kd: it is the concentration at which binding is half-saturated. Low values mean higher affinity, high ones lower affinity.

UniProt Q9NNX6, sequence (Q9NNX6 59-404): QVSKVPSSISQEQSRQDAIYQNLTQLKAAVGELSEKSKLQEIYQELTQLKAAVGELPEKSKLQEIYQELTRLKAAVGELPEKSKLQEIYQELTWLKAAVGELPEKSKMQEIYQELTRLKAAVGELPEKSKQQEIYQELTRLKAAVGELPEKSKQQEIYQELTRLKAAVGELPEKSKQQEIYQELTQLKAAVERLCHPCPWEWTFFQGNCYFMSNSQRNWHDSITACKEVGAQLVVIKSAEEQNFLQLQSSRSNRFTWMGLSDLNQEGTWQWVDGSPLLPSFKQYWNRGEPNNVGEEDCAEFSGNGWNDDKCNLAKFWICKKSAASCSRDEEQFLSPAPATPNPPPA
UniProt Q8IUN9, sequence (Q8IUN9 61-316): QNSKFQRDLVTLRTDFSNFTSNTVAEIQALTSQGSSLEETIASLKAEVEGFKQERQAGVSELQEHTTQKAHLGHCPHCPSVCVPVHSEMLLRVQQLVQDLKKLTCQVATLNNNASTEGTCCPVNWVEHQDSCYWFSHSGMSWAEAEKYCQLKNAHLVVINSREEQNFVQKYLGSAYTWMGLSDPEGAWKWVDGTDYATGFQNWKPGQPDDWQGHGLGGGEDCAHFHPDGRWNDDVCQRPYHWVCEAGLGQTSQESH

Consider “ADD KGE RBD (ADD-KGE/RBD-SC covalent complex) (from UniProt Q2Y0H9 1-544; P0DTC2 320-554)”, for which the Kd in experiment [1] was 0.34 nM; in experiment [2], 66.1 nM.
